Values joined by “and” are separate entries in the source; they are usually repeats but may differ in a detail not shown here. Equal entries are not always repeated.
Target: tail tube protein (TTP) of Bacillus subtilis bacteriophage SPR (Bacillus subtilis bacteriophage SPR)
Assay: cryo-EM structure

tail tube protein (TTP) of Bacillus subtilis bacteriophage SPR (natural protein)
stoichiometry N: 5 and 6

Reference: publication doi:10.1101/2024.11.10.622895
